Reference: the supplement of paper PMC9112550, “Optimization of the antimicrobial peptide Bac7 by deep mutational scanning” (BMC Biology, 2022)

What follows are sequences tested on Escherichia coli TOP10 (assay: shrunken log2 fold change of peptide-encoding DNA abundance (4.5 h post-induction vs induction); higher = less antimicrobial activity (less host growth inhibition)). Conditions: time post-induction: 4.5 h; library: site-saturation at positions 5, 18, 19, 20.
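Note: peptides expressed intracellularly from a pBAD plasmid library in pooled LB shake-flask culture, induced with 0.3% L-arabinose, DNA abundance read by NGS, three biological replicates, DESeq2 with apeglm shrinkage.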

Q: RRIRVRPPRLPRPRPRPDLTPRP was tested. Which “shrunken log2 fold change” value did it give?
A: -0.263

Q: For RRIRSRPPRLPRPRPRPPVDPRP, which “shrunken log2 fold change” value is on record?
A: 0.327

Q: For RRIRIRPPRLPRPRPRPTCCPRP, which “shrunken log2 fold change” value is on record?
A: 0.111

Q: With RRIRGRPPRLPRPRPRPGNEPRP as the sequence, how does the “shrunken log2 fold change” value read?
A: 0.0696

Q: RRIRQRPPRLPRPRPRPRGWPRP was tested. Which “shrunken log2 fold change” value did it give?
A: 0.267

Q: How did the “shrunken log2 fold change” value turn out when RRIRCRPPRLPRPRPRPMFTPRP was run?
A: -0.497

Q: Which “shrunken log2 fold change” value does the source give for RRIRLRPPRLPRPRPRPPQSPRP here?
A: 0.0818

Q: How did the “shrunken log2 fold change” value turn out when RRIRIRPPRLPRPRPRPWAWPRP was run?
A: -0.00783

Q: For RRIRGRPPRLPRPRPRPCNEPRP, which “shrunken log2 fold change” value is on record?
A: 0.0278

Q: With RRIRIRPPRLPRPRPRPSQNPRP as the sequence, how does the “shrunken log2 fold change” value read?
A: -0.766

Q: For RRIRERPPRLPRPRPRPENSPRP, which “shrunken log2 fold change” value is on record?
A: -0.0336

Q: How did the “shrunken log2 fold change” value turn out when RRIRMRPPRLPRPRPRPPEDPRP was run?
A: 1.66

Q: Which “shrunken log2 fold change” value does the source give for RRIRFRPPRLPRPRPRPRVRPRP here?
A: 0.0771

Q: Which “shrunken log2 fold change” value does the source give for RRIRWRPPRLPRPRPRPNDSPRP here?
A: -0.134

Q: With RRIRTRPPRLPRPRPRPWKDPRP as the sequence, how does the “shrunken log2 fold change” value read?
A: 0.0143

Q: Which “shrunken log2 fold change” value does the source give for RRIRFRPPRLPRPRPRPARSPRP here?
A: 0.336

Q: Which “shrunken log2 fold change” value does the source give for RRIRWRPPRLPRPRPRPYDFPRP here?
A: -0.181

Q: Which “shrunken log2 fold change” value does the source give for RRIRYRPPRLPRPRPRPRYPPRP here?
A: -0.83

Q: How did the “shrunken log2 fold change” value turn out when RRIRARPPRLPRPRPRPEWCPRP was run?
A: 0.72

Q: Which “shrunken log2 fold change” value does the source give for RRIRRRPPRLPRPRPRPMINPRP here?
A: -0.157

Q: RRIRRRPPRLPRPRPRPRAVPRP was tested. Which “shrunken log2 fold change” value did it give?
A: 0.427

Q: With RRIRTRPPRLPRPRPRPFHSPRP as the sequence, how does the “shrunken log2 fold change” value read?
A: -0.137

Q: With RRIRKRPPRLPRPRPRPFYQPRP as the sequence, how does the “shrunken log2 fold change” value read?
A: -0.101

Q: With RRIRFRPPRLPRPRPRPQPKPRP as the sequence, how does the “shrunken log2 fold change” value read?
A: 0.666

Q: RRIRKRPPRLPRPRPRPQMFPRP was tested. Which “shrunken log2 fold change” value did it give?
A: -0.00577

Q: With RRIRVRPPRLPRPRPRPLGHPRP as the sequence, how does the “shrunken log2 fold change” value read?
A: 0.0376

Q: Which “shrunken log2 fold change” value does the source give for RRIRRRPPRLPRPRPRPDLSPRP here?
A: -0.0391

Q: RRIRPRPPRLPRPRPRPTERPRP was tested. Which “shrunken log2 fold change” value did it give?
A: 0.649

Q: How did the “shrunken log2 fold change” value turn out when RRIRGRPPRLPRPRPRPMCLPRP was run?
A: 0.0563

Q: For RRIRGRPPRLPRPRPRPGYFPRP, which “shrunken log2 fold change” value is on record?
A: 3.3

Q: With RRIRHRPPRLPRPRPRPQMKPRP as the sequence, how does the “shrunken log2 fold change” value read?
A: -0.553

Q: How did the “shrunken log2 fold change” value turn out when RRIRERPPRLPRPRPRPSMAPRP was run?
A: -0.192

Q: With RRIRPRPPRLPRPRPRPRNNPRP as the sequence, how does the “shrunken log2 fold change” value read?
A: -0.228

Q: Which “shrunken log2 fold change” value does the source give for RRIRTRPPRLPRPRPRPCEYPRP here?
A: -0.0254

Q: How did the “shrunken log2 fold change” value turn out when RRIRKRPPRLPRPRPRPFDSPRP was run?
A: -0.0504

Q: How did the “shrunken log2 fold change” value turn out when RRIRSRPPRLPRPRPRPHAIPRP was run?
A: -0.144

Q: Which “shrunken log2 fold change” value does the source give for RRIRDRPPRLPRPRPRPWKPPRP here?
A: -0.35

Q: How did the “shrunken log2 fold change” value turn out when RRIRVRPPRLPRPRPRPWEKPRP was run?
A: 0.0403

Q: RRIRWRPPRLPRPRPRPKWIPRP was tested. Which “shrunken log2 fold change” value did it give?
A: -0.0267

Q: How did the “shrunken log2 fold change” value turn out when RRIRMRPPRLPRPRPRPESRPRP was run?
A: 2.68

Q: RRIRDRPPRLPRPRPRPPSIPRP was tested. Which “shrunken log2 fold change” value did it give?
A: -0.0216

Q: Which “shrunken log2 fold change” value does the source give for RRIRLRPPRLPRPRPRPYKLPRP here?
A: -0.0961

Q: With RRIRMRPPRLPRPRPRPSTKPRP as the sequence, how does the “shrunken log2 fold change” value read?
A: 0.291

Q: Which “shrunken log2 fold change” value does the source give for RRIRNRPPRLPRPRPRPKNNPRP here?
A: -0.407

Q: Which “shrunken log2 fold change” value does the source give for RRIRYRPPRLPRPRPRPHGVPRP here?
A: -0.261

Q: RRIRKRPPRLPRPRPRPCSGPRP was tested. Which “shrunken log2 fold change” value did it give?
A: 0.00663

Q: How did the “shrunken log2 fold change” value turn out when RRIRMRPPRLPRPRPRPGWHPRP was run?
A: 0.41

Q: With RRIRVRPPRLPRPRPRPEQIPRP as the sequence, how does the “shrunken log2 fold change” value read?
A: -0.0137

Q: Which “shrunken log2 fold change” value does the source give for RRIRTRPPRLPRPRPRPKDLPRP here?
A: 0.0246

Q: How did the “shrunken log2 fold change” value turn out when RRIRERPPRLPRPRPRPWWGPRP was run?
A: -0.081

Q: Which “shrunken log2 fold change” value does the source give for RRIRARPPRLPRPRPRPIVFPRP here?
A: -0.0956

Q: RRIRNRPPRLPRPRPRPKDNPRP was tested. Which “shrunken log2 fold change” value did it give?
A: -0.484

Q: With RRIRRRPPRLPRPRPRPCHEPRP as the sequence, how does the “shrunken log2 fold change” value read?
A: -0.0891

Q: How did the “shrunken log2 fold change” value turn out when RRIRHRPPRLPRPRPRPYWGPRP was run?
A: -0.0562

Q: RRIRDRPPRLPRPRPRPSPYPRP was tested. Which “shrunken log2 fold change” value did it give?
A: -1.07

Q: How did the “shrunken log2 fold change” value turn out when RRIRARPPRLPRPRPRPIKWPRP was run?
A: 0.235

Q: How did the “shrunken log2 fold change” value turn out when RRIRERPPRLPRPRPRPKPCPRP was run?
A: 0.133

Q: How did the “shrunken log2 fold change” value turn out when RRIRYRPPRLPRPRPRPIGGPRP was run?
A: -0.4

Q: How did the “shrunken log2 fold change” value turn out when RRIRGRPPRLPRPRPRPKHYPRP was run?
A: 0.0538

Q: RRIRERPPRLPRPRPRPATLPRP was tested. Which “shrunken log2 fold change” value did it give?
A: -0.274

Q: For RRIRKRPPRLPRPRPRPAMCPRP, which “shrunken log2 fold change” value is on record?
A: 0.059

Q: With RRIRKRPPRLPRPRPRPTTAPRP as the sequence, how does the “shrunken log2 fold change” value read?
A: 0.271

Q: RRIRQRPPRLPRPRPRPCRGPRP was tested. Which “shrunken log2 fold change” value did it give?
A: 0.104

Q: RRIRQRPPRLPRPRPRPIDAPRP was tested. Which “shrunken log2 fold change” value did it give?
A: 0.000655

Q: Which “shrunken log2 fold change” value does the source give for RRIRMRPPRLPRPRPRPQNEPRP here?
A: 0.155

Q: How did the “shrunken log2 fold change” value turn out when RRIRFRPPRLPRPRPRPYWTPRP was run?
A: -0.651

Q: Which “shrunken log2 fold change” value does the source give for RRIRERPPRLPRPRPRPTLNPRP here?
A: -0.152

Q: With RRIRLRPPRLPRPRPRPQGMPRP as the sequence, how does the “shrunken log2 fold change” value read?
A: -0.0379

Q: Which “shrunken log2 fold change” value does the source give for RRIRWRPPRLPRPRPRPMPRPRP here?
A: 0.623

Q: For RRIRMRPPRLPRPRPRPFNEPRP, which “shrunken log2 fold change” value is on record?
A: -0.488

Q: For RRIRPRPPRLPRPRPRPLCPPRP, which “shrunken log2 fold change” value is on record?
A: -0.128

Q: With RRIRWRPPRLPRPRPRPEWQPRP as the sequence, how does the “shrunken log2 fold change” value read?
A: 0.0276

Q: Which “shrunken log2 fold change” value does the source give for RRIRVRPPRLPRPRPRPRDGPRP here?
A: 1.09

Q: For RRIRVRPPRLPRPRPRPGLGPRP, which “shrunken log2 fold change” value is on record?
A: 0.134

Q: How did the “shrunken log2 fold change” value turn out when RRIRMRPPRLPRPRPRPSHCPRP was run?
A: 0.0171
